How the values were obtained:
[1] = molecular target: T1, K191A; assay: ELISA on plate-coated HuHtrA1_PD mutants (Example 7); column head on the sheet reads YW505.94 Fab, legend paragraph 70 says IgG94
T1 construct: also called HuHtrA1_PD(K191A)
Description: (§1) The mutants were expressed in E. coli and the trimers purified by size exclusion chromatography as described in Example 2. Binding was determined using an ELISA assay, which was conducted using a MAXISORP™ microtiter plate coated with HuHtrA1_PD mutants at 2 μg/ml in PBS for 1 h, followed by blocking with PBST buffer (0.5% BSA and 0.05% Tween 20 in PBS) for 1 h at room temperature. […] The plates were washed with PBT buffer (0.05% Tween 20 in PBS), and HRP-conjugated goat anti-human IgG (H+L) (Invitrogen) was added (1:5000 in PBST buffer) and incubated for 1 h. The plates were washed with PBT buffer and developed by adding tetramethylbenzidine substrate (Kirkegaard and Perry Laboratories, Gaithersburg, Md.). The absorbance at 450 nm was plotted as a function of antibody concentration in solution to determine EC₅₀ values.
(§2) In trypsin-like serine proteases these loops are known to be part of the specificity determining region that interacts with substrates.

[2] = molecular target: T2, N224A; assay: as above
T2 construct: also called HuHtrA1_PD(N224A)
Description: as §1, §2

[3] = molecular target: T3, HuHtrA1_PD(K225A) (human, UniProt F1N152 168-386 (bovine entry)); assay: as above
T3 construct: Alanine mutant of HuHtrA1_PD; also called HuHtrA1 mutant K225A; not shown: thrombin cleavage site
T3 chain: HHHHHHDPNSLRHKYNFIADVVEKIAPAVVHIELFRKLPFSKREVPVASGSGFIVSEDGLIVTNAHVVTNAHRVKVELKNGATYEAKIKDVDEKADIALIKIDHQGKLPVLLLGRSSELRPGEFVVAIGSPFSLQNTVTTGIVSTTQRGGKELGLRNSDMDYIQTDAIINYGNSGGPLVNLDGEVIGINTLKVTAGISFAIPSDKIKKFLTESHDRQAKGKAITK
Description: as §1, §2

[4] = molecular target: T4, HuHtrA1_PD(S328A), catalytically inactive protease domain of human HtrA1 (human, UniProt F1N152 168-386 (bovine entry)); assay: as above
T4 construct: Trimer; not shown: thrombin cleavage site
T4 chain: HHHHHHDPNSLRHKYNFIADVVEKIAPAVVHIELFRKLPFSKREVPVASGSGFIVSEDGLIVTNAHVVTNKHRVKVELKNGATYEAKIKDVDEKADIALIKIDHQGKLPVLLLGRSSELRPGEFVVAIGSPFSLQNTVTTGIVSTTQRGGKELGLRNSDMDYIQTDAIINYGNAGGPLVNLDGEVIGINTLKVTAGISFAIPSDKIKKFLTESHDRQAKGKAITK
Description: as §1, §2

[5] = molecular target: T5, R227A; assay: as above
T5 construct: also called HuHtrA1_PD(R227A)
Description: as §1, §2

[6] = molecular target: T6, HuHtrA1_PD(K243A) (human, UniProt F1N152 168-386 (bovine entry)); assay: as above
T6 construct: Alanine mutant of HuHtrA1_PD; also called HuHtrA1 mutant K243A; not shown: thrombin cleavage site
T6 chain: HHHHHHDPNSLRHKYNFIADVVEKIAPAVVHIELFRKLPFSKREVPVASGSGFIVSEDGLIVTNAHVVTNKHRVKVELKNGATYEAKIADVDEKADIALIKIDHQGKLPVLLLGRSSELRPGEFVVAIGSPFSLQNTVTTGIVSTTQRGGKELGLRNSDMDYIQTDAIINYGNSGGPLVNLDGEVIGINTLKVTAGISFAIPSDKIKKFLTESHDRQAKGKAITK
Description: as §1, §2

[7] = molecular target: T7, HuHtrA1_PD(V201A) (human, UniProt F1N152 168-386 (bovine entry)); assay: as above
T7 construct: Alanine mutant of HuHtrA1_PD; also called HuHtrA1 mutant V201A; not shown: thrombin cleavage site
T7 chain: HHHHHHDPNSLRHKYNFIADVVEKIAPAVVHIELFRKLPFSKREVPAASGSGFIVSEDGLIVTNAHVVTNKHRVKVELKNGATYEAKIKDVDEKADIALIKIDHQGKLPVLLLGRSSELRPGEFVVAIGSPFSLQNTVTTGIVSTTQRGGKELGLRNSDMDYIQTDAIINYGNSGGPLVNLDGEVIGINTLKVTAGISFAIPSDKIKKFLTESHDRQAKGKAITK
Description: as §1, §2

[8] = molecular target: T8, HuHtrA1_PD(H220A) (human, UniProt F1N152 168-386 (bovine entry)); assay: as above
T8 construct: Alanine mutant of HuHtrA1_PD; also called HuHtrA1 mutant H220A; not shown: thrombin cleavage site
T8 chain: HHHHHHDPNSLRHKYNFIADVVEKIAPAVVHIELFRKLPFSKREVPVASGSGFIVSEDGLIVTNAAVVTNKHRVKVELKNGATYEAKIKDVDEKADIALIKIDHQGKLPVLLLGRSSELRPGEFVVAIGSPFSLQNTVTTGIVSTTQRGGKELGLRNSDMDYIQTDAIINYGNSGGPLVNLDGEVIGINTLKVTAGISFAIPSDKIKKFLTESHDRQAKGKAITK
Description: as §1, §2

[9] = molecular target: Full length human HtrA1 (HuHtrA1) (Q23-P480), N-terminal His6 tag (human, UniProt Q92743 23-480); assay: cell-based or functional assay
Full length human HtrA1 (HuHtrA1) (Q23-P480), N-terminal His6 tag, sequence (Q92743 other isoform, or with tags, fused parts or gaps): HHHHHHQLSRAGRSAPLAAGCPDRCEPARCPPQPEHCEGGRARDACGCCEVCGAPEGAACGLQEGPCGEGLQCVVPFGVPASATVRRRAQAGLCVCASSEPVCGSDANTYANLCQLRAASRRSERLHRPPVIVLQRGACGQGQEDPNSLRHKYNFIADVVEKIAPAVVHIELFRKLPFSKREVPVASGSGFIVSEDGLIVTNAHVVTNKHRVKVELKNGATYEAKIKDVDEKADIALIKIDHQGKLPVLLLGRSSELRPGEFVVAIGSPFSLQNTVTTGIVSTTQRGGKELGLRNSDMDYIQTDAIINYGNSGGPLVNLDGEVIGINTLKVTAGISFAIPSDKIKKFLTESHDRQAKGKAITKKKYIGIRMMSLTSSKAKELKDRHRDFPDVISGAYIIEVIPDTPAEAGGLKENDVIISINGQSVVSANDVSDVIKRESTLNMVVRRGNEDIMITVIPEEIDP

EC50 [1]: 14 nM
Relative to WT EC50 Fold Decrease [1]: 2.5 fold
EC50 [2]: 135 nM
Relative to WT EC50 Fold Decrease [2]: 24 fold
EC50 [3]: 52.2 nM
Relative to WT EC50 Fold Decrease [3]: 9.3 fold
EC50 [4]: 2.3 nM
Relative to WT EC50 Fold Decrease [4]: 0.4 fold
EC50 [5]: 25.9 nM
Relative to WT EC50 Fold Decrease [5]: 4.6 fold
EC50 [6]: 64.9 nM
Relative to WT EC50 Fold Decrease [6]: 11.6 fold
EC50 [7]: 112 nM
Relative to WT EC50 Fold Decrease [7]: 20 fold
EC50 [8]: 32 nM
Relative to WT EC50 Fold Decrease [8]: 5.7 fold
IC50, inhibition of H2-Opt peptide hydrolysis (FRET assay) [9]: 29.1 nM
B1: Fab94 (anti-HtrA1 antibody YW505.94, Fab format) (Fab, V domains shown)
VH: EVQLVESGGGLVQPGGSLRLSCAASGFNISGYYIHWVRQAPGKGLEWVGWIDPYGGDTNYADSVKGRFTISADTSKNTAYLQMNSLRAEDTAVYYCARGTFLTSWGHYFDYWGQGT
VL: DIQMTQSPSSLSASVGDRVTITCRASQDVSTAVAWYQQKPGKAPKLLIYSASFLYSGVPSRFSGSGSGTDFTLTISSLQPEDFATYYCQQSYTTPPTFGQGTKVEIKR

From patent US20190016826A1 (Genentech, published 2019)
